From US20210140973A1

Tests used:
[1] = molecular target: human IgG4 purified from human serum (human); test: latex agglutination inhibition, IgG4-sensitized latex, antibody in R1; free human IgG4 in sample 1000 mg/dL
[2] = molecular target: human IgG4 purified from human serum (human); test: latex agglutination inhibition, IgG4-sensitized latex, antibody in R1; free human IgG4 in sample 250 mg/dL
[3] = molecular target: human IgG4 purified from human serum (human); test: latex agglutination inhibition, IgG4-sensitized latex, antibody in R1; free human IgG4 in sample 500 mg/dL
[4] = molecular target: human IgG4 purified from human serum (human); test: latex agglutination inhibition, IgG4-sensitized latex, antibody in R1; free human IgG4 in sample 125 mg/dL
[5] = molecular target: human IgG4 purified from human serum (human); test: latex agglutination inhibition, IgG4-sensitized latex, antibody in R1; free human IgG4 in sample 0.0 mg/dL
[6] = molecular target: human IgG4 purified from human serum (human); test: SPR (Biacore), IgG4 immobilized
[7] = molecular target: human IgG4 purified from human serum (human); test: latex agglutination inhibition, IgG4-sensitized latex, antibody in R1; free human IgG4 in sample 31.3 mg/dL
[8] = molecular target: human IgG4 purified from human serum (human); test: SPR (Biacore), IgG4 immobilized on chip by amino coupling, antibody as analyte

human IgG4 purified from human serum (human), sequence (constant, as listed by the source limits assumed): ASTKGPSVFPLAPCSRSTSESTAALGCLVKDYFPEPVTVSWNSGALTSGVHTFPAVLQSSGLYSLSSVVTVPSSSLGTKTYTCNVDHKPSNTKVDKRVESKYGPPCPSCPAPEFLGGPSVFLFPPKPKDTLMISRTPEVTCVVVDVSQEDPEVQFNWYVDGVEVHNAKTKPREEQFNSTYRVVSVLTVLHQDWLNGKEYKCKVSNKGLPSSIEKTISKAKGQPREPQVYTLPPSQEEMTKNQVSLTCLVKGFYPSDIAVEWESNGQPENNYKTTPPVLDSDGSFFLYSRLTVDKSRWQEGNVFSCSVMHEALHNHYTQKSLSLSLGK

ratio of binding rate constant ka to those of the MaI4-08 and MaI4-09-produced antibodies [6]: < 0.01 fold | Kd [8]: 408 nM | koff [8]: 0.000681 s⁻¹ | kon [8]: 1670 M⁻¹ s⁻¹
Substance: commercially available antibody HP6025 (Millipore Corporation)
Absorbance change amount in 800 nm [1]: 0.003 | Absorbance change amount in 800 nm [2]: 0.0034 | Absorbance change amount in 800 nm [3]: 0.0031 | Absorbance change amount in 800 nm [4]: 0.0033 | Absorbance change amount in 800 nm [5]: 0.003 | Absorbance change amount in 800 nm [7]: 0.0036
